Source: paper PMC10287930, “RecF protein targeting to post-replication (daughter strand) gaps II: RecF interaction with replisomes” (Nucleic Acids Research, 2023)

B1: RadD (Gal4 fusion for yeast two-hybrid) (natural protein, E. coli, UniProt P33919 1-586, looked up)
chain: MIFTLRPYQQEAVDATLNHFRRHKTPAVIVLPTGAGKSLVIAELARLARGRVLVLAHVKELVAQNHAKYQALGLEADIFAAGLKRKESHGKVVFGSVQSVARNLDAFQGEFSLLIVDECHRIGDDEESQYQQILTHLTKVNPHLRLLGLTATPFRLGKGWIYQFHYHGMVRGDEKALFRDCIYELPLRYMIKHGYLTPPERLDMPVVQYDFSRLQAQSNGLFSEADLNRELKKQQRITPHIISQIMEFAATRKGVMIFAATVEHAKEIVGLLPAEDAALITGDTPGAERDVLIENFKAQRFRYLVNVAVLTTGFDAPHVDLIAILRPTESVSLYQQIVGRGLRLAPGKTDCLILDYAGNPHDLYAPEVGTPKGKSDNVPVQVFCPACGFANTFWGKTTADGTLIEHFGRRCQGWFEDDDGHREQCDFRFRFKNCPQCNAENDIAARRCRECDTVLVDPDDMLKAALRLKDALVLRCSGMSLQHGHDEKGEWLKITYYDEDGADVSERFRLQTPAQRTAFEQLFIRPHTRTPGIPLRWITAADILAQQALLRHPDFVVARMKGQYWQVREKVFDYEGRFRLAHELRG
notes: RadD (YejH), E. coli; also called YejH; pGAD-YejH; source: yeast two-hybrid fusion (yeast CFy7)
B2: RecQ (Gal4 fusion for yeast two-hybrid) (natural protein)
chain: not shown
notes: RecQ helicase, E. coli; open reading frame (start to stop codons) of recQ; also called pGAD-RecQ; pGBD-RecQ; source: yeast two-hybrid fusion (yeast CFy7; pEAW1100 pGAD-RecQ, pEAW1105 pGBD-RecQ)
B3: RecO (Gal4 fusion for yeast two-hybrid) (natural protein, E. coli, UniProt P0A7H3 1-242, looked up)
chain: MEGWQRAFVLHSRPWSETSLMLDVFTEESGRVRLVAKGARSKRSTLKGALQPFTPLLLRFGGRGEVKTLRSAEAVSLALPLSGITLYSGLYINELLSRVLEYETRFSELFFDYLHCIQSLAGVTGTPEPALRRFELALLGHLGYGVNFTHCAGSGEPVDDTMTYRYREEKGFIASVVIDNKTFTGRQLKALNAREFPDADTLRAAKRFTRMALKPYLGGKPLKSRELFRQFMPKRTVKTHYE
notes: RecO, E. coli; open reading frame (start to stop codons) of recO; also called pGAD-RecO; pGBD-RecO; source: yeast two-hybrid fusion (yeast CFy7; pEAW1258 pGAD-RecO, pEAW1259 pGBD-RecO)
B4: RecF (Gal4 fusion for yeast two-hybrid) (natural protein, E. coli, UniProt P0A7H0 1-357, looked up)
chain: MSLTRLLIRDFRNIETADLALSPGFNFLVGANGSGKTSVLEAIYTLGHGRAFRSLQIGRVIRHEQEAFVLHGRLQGEERETAIGLTKDKQGDSKVRIDGTDGHKVAELAHLMPMQLITPEGFTLLNGGPKYRRAFLDWGCFHNEPGFFTAWSNLKRLLKQRNAALRQVTRYEQLRPWDKELIPLAEQISTWRAEYSAGIAADMADTCKQFLPEFSLTFSFQRGWEKETEYAEVLERNFERDRQLTYTAHGPHKADLRIRADGAPVEDTLSRGQLKLLMCALRLAQGEFLTRESGRRCLYLIDDFASELDDERRGLLASRLKATQSQVFVSAISAEHVIDMSDENSKMFTVEKGKITD
notes: RecF, E. coli; open reading frame (start to stop codons) of recF cloned in frame into pGAD-C3 and pGBD-C3; Stood as AD fusion and as BD fusion in turn; one molecule for both; source: yeast two-hybrid fusion (yeast CFy7; pEAW1241 pGAD-RecF, pEAW1242 pGBD-RecF)
B5: TopB (Gal4 fusion for yeast two-hybrid) (natural protein, E. coli, UniProt P14294 1-653, looked up)
chain: MRLFIAEKPSLARAIADVLPKPHRKGDGFIECGNGQVVTWCIGHLLEQAQPDAYDSRYARWNLADLPIVPEKWQLQPRPSVTKQLNVIKRFLHEASEIVHAGDPDREGQLLVDEVLDYLQLAPEKRQQVQRCLINDLNPQAVERAIDRLRSNSEFVPLCVSALARARADWLYGINMTRAYTILGRNAGYQGVLSVGRVQTPVLGLVVRRDEEIENFVAKDFFEVKAHIVTPADERFTAIWQPSEACEPYQDEEGRLLHRPLAEHVVNRISGQPAIVTSYNDKRESESAPLPFSLSALQIEAAKRFGLSAQNVLDICQKLYETHKLITYPRSDCRYLPEEHFAGRHAVMNAISVHAPDLLPQPVVDPDIRNRCWDDKKVDAHHAIIPTARSSAINLTENEAKVYNLIARQYLMQFCPDAVFRKCVIELDIAKGKFVAKARFLAEAGWRTLLGSKERDEENDGTPLPVVAKGDELLCEKGEVVERQTQPPRHFTDATLLSAMTGIARFVQDKDLKKILRATDGLGTEATRAGIIELLFKRGFLTKKGRYIHSTDAGKALFHSLPEMATRPDMTAHWESVLTQISEKQCRYQDFMQPLVGTLYQLIDQAKRTPVRQFRGIVAPGSGGSADKKKAAPRKRSAKKSPPADEVGSGAIA
notes: TopB (DNA topoisomerase III), E. coli; open reading frame (start to stop codons) of topB; also called pGAD-TopB; pGBD-TopB; source: yeast two-hybrid fusion (yeast CFy7; pEAW1251 pGAD-TopB, pEAW1252 pGBD-TopB)
B6: RecR (Gal4 fusion for yeast two-hybrid) (natural protein, E. coli, UniProt P0A7H6 1-201, looked up)
chain: MQTSPLLTQLMEALRCLPGVGPKSAQRMAFTLLQRDRSGGMRLAQALTRAMSEIGHCADCRTFTEQEVCNICSNPRRQENGQICVVESPADIYAIEQTGQFSGRYFVLMGHLSPLDGIGPDDIGLDRLEQRLAEEKITEVILATNPTVEGEATANYIAELCAQYDVEASRIAHGVPVGGELEMVDGTTLSHSLAGRHKIRF
notes: RecR, E. coli; open reading frame (start to stop codons) of recR; Stood as AD fusion and as BD fusion in turn; also called pGAD-RecR; pGBD-RecR; source: yeast two-hybrid fusion (yeast CFy7; pEAW1247 pGAD-RecR, pEAW1248 pGBD-RecR)

Key:
Assay in all cases: two-hybrid; yeast CFy7; RecF fused to Gal4 AD (pGAD-C3) or BD (pGBD-C3) and the partner to the other domain; β-galactosidase activity of freeze/thaw-broken cells in Z buffer; 4 or 5 biological replicates; negative controls (empty C3) 0.21 (AD_RecF) and 0.27 units (BD_RecF)
[1] = biological target: B4; details: partners not purified
[2] = biological target: B6; details: partners not purified
[3] = biological target: T1, DnaN β-clamp (Gal4 fusion for yeast two-hybrid) (E. coli, UniProt P0A988 1-366); details: partners not purified
T1 construct: DnaN (β-clamp of DNA polymerase III), E. coli; open reading frame (start to stop codons) of dnaN; also called pGBD-DnaN; source: yeast two-hybrid fusion (yeast CFy7; pEAW1101 pGAD-DnaN, pEAW1104 pGBD-DnaN)
T1 sequence (P0A988 whole entry, the tested form may be a part): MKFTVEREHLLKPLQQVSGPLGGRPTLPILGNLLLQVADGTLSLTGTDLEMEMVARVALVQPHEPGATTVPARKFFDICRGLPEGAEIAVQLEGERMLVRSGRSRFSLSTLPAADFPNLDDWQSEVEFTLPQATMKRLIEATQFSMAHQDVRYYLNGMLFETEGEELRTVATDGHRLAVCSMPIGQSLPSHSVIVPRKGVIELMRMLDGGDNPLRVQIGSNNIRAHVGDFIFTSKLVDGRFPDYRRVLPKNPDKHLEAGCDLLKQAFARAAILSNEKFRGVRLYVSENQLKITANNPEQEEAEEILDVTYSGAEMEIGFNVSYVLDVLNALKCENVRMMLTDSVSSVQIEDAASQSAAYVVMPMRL

[4] = biological target: the molecule itself

Row | β-galactosidase activity [1] [units] | Binder | further results
1 | ~0.5 | B1 | 
2 | ~0.5 | B2 | 
3 | ~0.5 | B3 | 
4 |  | B4 | β-galactosidase activity [2]: 1.14 units; β-galactosidase activity [3]: 1.05 units; β-galactosidase activity [4]: 0.655 units
5 | ~0.5 | B5 | 
6 | 1.63 | B6 | 
